The record followed here is patent US20110256557A1, “IDENTIFYING PARATHYROID HORMONE AGONISTS AND ANTAGONISTS” (DISCOVERYBIOMED, INC., priority 2008, published 2011).

What all share (type): cell-based
The target in one test is T1, PTH1R (Homo sapiens, UniProt Q03431).
T1 sequence (Q03431 27-593): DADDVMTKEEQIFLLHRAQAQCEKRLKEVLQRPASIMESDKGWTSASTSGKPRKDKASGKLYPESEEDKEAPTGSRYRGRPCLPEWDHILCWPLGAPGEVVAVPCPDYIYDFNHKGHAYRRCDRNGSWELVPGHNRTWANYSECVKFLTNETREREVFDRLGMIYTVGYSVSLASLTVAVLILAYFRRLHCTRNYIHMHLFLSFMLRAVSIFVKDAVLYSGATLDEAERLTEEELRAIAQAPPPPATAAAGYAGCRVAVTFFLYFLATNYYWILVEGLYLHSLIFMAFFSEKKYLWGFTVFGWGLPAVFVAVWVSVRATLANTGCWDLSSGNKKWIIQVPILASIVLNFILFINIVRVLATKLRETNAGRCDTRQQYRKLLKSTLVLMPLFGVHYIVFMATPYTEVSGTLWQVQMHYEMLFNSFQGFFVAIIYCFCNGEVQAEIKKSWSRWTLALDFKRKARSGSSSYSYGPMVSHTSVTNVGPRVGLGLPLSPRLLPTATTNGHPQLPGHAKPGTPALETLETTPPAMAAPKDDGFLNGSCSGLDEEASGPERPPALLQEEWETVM
As to the kind of experiment: Co-immunoprecipitation of exogenous LRP5/LRP6 constructs with PTH1R in HEK293 cells. The settings on record: HEK293 cells. From the text:
PTH1R tagged with HA was subcloned into pcDNA3.1. cDNAs from human LRP5 (Mao et al., Mol. Cell. 7:801-9 (2001)) and LRP6 (Tamai et al., Nature 407:530-35 (2000)) tagged with HA and VSVG were subcloned into pCMV and pCS2^+, respectively. LRP6N+T (LRP6 N-terminal plus the transmembrane domain) and LRP6T+C (LRP6 transmembrane domain plus C-terminal) tagged with VSVG were subcloned into pCS2^+. LRP6N+1479m, LRP6N+1490m, LRP6N+1493m and LRP6N+1496m were generated by mutagenesis of either the serine (at amino acid 1490 or amino acid 1496) or threonine (at amino acid 1479 or amino acid 1493) to alanine LRP6N-IgG was generated by fusing the LRP6 extracellular domain with IgG (Tamai et al., Nature 407:530-35 (2000)). si-GFP (Wan et al., Am. J. Pathol. 166:1379-92 (2005)) and si-LRP6 plasmids were generated using a BS/U6 vector. Briefly, a 22-nucleotide oligo (oligo 1) corresponding to nucleotides 2981 to 3002 of the human LRP6 coding region was first inserted into the BS/U6 vector digested with ApaI (blunted) and HindIII. The inverted motif that contains the six-nucleotide spacer and five Ts (oligo 2) was then subcloned into the HindIII and EcoRI sites of the intermediate plasmid to generate BS/U6/LRP5/6.
(§1) Cells were harvested in cavitation buffer (5 mM HEPES, pH 7.4, 3 mM MgCl2, 1 mM EGTA, 250 mM sucrose) containing protease and phosphatase inhibitors and homogenized by nitrogen cavitation (200 p.s.i., for 5 minutes) in a cell disruption bomb (Parr Instrument Co.; Moline, Ill.). The cell homogenate was centrifuged twice at 700 g for 10 minutes to pellet the nuclei. The supernatant was further centrifuged at 100,000 g (Beckman SW50.1 rotor) for 1 hour to separate the membrane and cytosol fractions, and the resulting membrane pellet was washed three times with cavitation buffer before use in the assays (Zhang et al., Biochem. J. 343:541-9 (1999)). Immunoprecipitation and Western blot analysis of cell lysates were performed as described previously (Wan et al., Am. J. Pathol. 166:1379-92 (2005)).

The test system of test [1] is β-catenin. Description: Western blot of cytosolic β-catenin in HEK 293 cells. The settings on record: HEK 293 cells; concentration- and time-dependent. On the procedure: as §1
On the technique in general: Immunoblotting shows a protein as a band on a membrane.

The test system of test [2] is β-catenin. Description: Western blot of cytosolic β-catenin in mouse calvarial primary preosteoblasts. As to conditions: concentration- and time-dependent. Here is the method: Osteoblasts were isolated by digestion of calvaria of newborn mice as described (Wang et al., J. Clin. Invest. 117:1616-26 (2007)). Briefly, calvaria were incubated with 10 ml of digestion solution containing 1.8 mg/ml of collagenase type I (Worthington Biochemical Corp.; Lakewood, N.J.) for 15 minutes at 37° C. under constant agitation. The supernatant was then harvested, replaced with fresh collagenase and the digestion repeated an additional 4 times. Digestion solutions containing the osteoblasts were pooled together. After centrifugation, osteoblasts were obtained and cultured in α-Minimal Essential Media (MEM) containing 10% FBS and 1% penicillin/streptomycin at 37° C. in a humidified incubator supplied with 5% CO2.
as §1, with “Immunoprecipitation and Western blot analysis of cell lysates were performed as described previously (Wan et al., Am. J. Pathol. 166:1379-92 (2005)).” left out

For the substance Parathyroid hormone [PTH], the “binding of exogenous PTH1R to exogenous LRP6” value in the test with PTH1R was “enhances”. Besides, the “binding of LRP5 to PTH1R” value with PTH1R (exogenous LRP5 and PTH1R) is listed as “did not enhance”. In addition, the “levels of β-catenin in the cytosol” value in the test on β-catenin [1] and in the test on β-catenin [2] was “enhanced” each time.
